According to article PMC12273708, “Biochemical and Biophysical Divergences between Two L‑Asparaginase II Variants: Potential for Using EcA2-K12 as a Biosimilar” (Biochemistry, 2025):

Columns and labels:
[1] = target: T1, EcA2-K12 (L-asparaginase II, K12 strain) (Escherichia coli, UniProt P00805); assay: intrinsic tryptophan fluorescence titration (spectral center of mass), Hill fit; type: binding
T1 construct: gene ansB; mature protein (precursor residues 23 to 348) behind a pelB leader, pET25b, secreted from E. coli BL21(DE3), purified from medium; no tag mentioned; homotetramer with four active sites
T1 sequence (P00805 23-348): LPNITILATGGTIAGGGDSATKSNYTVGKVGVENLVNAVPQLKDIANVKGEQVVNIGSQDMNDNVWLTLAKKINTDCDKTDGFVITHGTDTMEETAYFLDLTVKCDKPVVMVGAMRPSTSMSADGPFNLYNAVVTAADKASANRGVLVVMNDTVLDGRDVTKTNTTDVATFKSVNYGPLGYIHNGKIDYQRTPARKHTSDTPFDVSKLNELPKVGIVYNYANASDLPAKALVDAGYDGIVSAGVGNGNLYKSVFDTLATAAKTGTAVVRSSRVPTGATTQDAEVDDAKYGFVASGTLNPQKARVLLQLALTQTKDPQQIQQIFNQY

[2] = target: T2, EcA2-4M (L-asparaginase II, BL21(DE3) / Elspar sequence) (Escherichia coli, UniProt P00805, N86D/S274T/T285N/V49A); assay: as above; type: binding
T2 construct: gene ansB; mature protein (precursor residues 23 to 348) behind a pelB leader, pET25b, secreted from E. coli BL21(DE3), purified from medium; no tag mentioned; homotetramer with four active sites
T2 sequence (P00805 23-348 V49A/N86D/S274T/T285N): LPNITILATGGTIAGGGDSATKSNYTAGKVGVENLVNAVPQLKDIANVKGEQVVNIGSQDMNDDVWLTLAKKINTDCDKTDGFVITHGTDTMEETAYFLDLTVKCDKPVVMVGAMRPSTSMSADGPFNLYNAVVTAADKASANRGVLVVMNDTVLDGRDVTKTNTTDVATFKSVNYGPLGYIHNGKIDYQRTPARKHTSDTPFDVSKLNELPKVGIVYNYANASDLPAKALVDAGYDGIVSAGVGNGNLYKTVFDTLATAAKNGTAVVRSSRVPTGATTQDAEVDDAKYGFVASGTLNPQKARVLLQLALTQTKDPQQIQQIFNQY

[3] = SEC; analytical size exclusion chromatography, TSKgel G2000SWXL, 50 uM enzyme in 25 mM sodium phosphate pH 7.4, 100 mM sodium chloride, 0.35 mL/min; hydrodynamic radius against globular standards
[4] = target: L-asparaginase II from the K12 strain (EcA2-K12) (Escherichia coli, strain K12 (strain printed; the species name is lost from the text shown)); assay: as above
[5] = target: L-asparaginase II variant EcA2-4M (sequence of the BL21(DE3) strain and of Elspar) (Escherichia coli, strain BL21(DE3) (strain printed; the species name is lost from the text shown)); assay: as above
[6] = substrate: NC(=O)CC[C@H](N)C(=O)O; assay: 1D 1H NMR progress curves, Lambert W fit of integrated Michaelis-Menten equation; type: biochemical, Escherichia coli; conditions: 640 μM L-Gln, 2.5 μM enzyme, 100 mM sodium phosphate pH 8.0, 10% D2O, 25 °C
Excerpt: (§1) 1D 1H NMR progress curves, Lambert W fit of integrated Michaelis-Menten equation on EcA2-K12 (L-asparaginase II, K12 strain)

[7] = substrate: NC(=O)C[C@H](N)C(=O)O; assay: as above; type: biochemical, Escherichia coli; conditions: 160 μM L-Asn, 2.1 nM enzyme, 100 mM sodium phosphate pH 8.0, 10% D2O, 25 °C
Excerpt: as §1

[8] = substrate: NC(=O)CC[C@H](N)C(=O)O; assay: as above; type: biochemical, Escherichia coli; conditions: 640 μM L-Gln, 1.3 μM enzyme, 100 mM sodium phosphate pH 8.0, 10% D2O, 25 °C
Excerpt: (§2) 1D 1H NMR progress curves, Lambert W fit of integrated Michaelis-Menten equation on EcA2-4M (L-asparaginase II, BL21(DE3) / Elspar sequence)

[9] = substrate: NC(=O)C[C@H](N)C(=O)O; assay: as above; type: biochemical, Escherichia coli; conditions: 160 μM L-Asn, 1.0 nM enzyme, 100 mM sodium phosphate pH 8.0, 10% D2O, 25 °C
Excerpt: as §2

Q: Which Kd [1] does the source give for N[C@@H](CC(=O)O)C(=O)O [L-Asp] here?
A: Its Kd is 211 ± 52 µM.

Q: And the Kd [2]?
A: The Kd was 66 ± 14 µM.

Q: For “L-asparaginase II from the K12 strain (EcA2-K12)”, which “prepeak percentage of the total area (species of larger hydrodynamic radii)” value [3] is on record?
A: The value was 13% for EcA2-K12.

Q: Which stoichiometry N [4] does the source give for “L-asparaginase II from the K12 strain (EcA2-K12) (enzyme)” here?
A: Its stoichiometry N is 4.

Q: For “L-asparaginase II variant EcA2-4M (sequence of the BL21(DE3) strain and of Elspar)”, which “prepeak percentage of the total area (species of larger hydrodynamic radii)” value [3] is on record?
A: Its value is “approximately 5%”.

Q: For “L-asparaginase II variant EcA2-4M (sequence of the BL21(DE3) strain and of Elspar) (enzyme)”, which stoichiometry N [5] is on record?
A: Its stoichiometry N is 4.

B1: EcA2-K12 (L-asparaginase II, K12 strain) (Escherichia coli K-12) (protein)
chain: LPNITILATGGTIAGGGDSATKSNYTVGKVGVENLVNAVPQLKDIANVKGEQVVNIGSQDMNDNVWLTLAKKINTDCDKTDGFVITHGTDTMEETAYFLDLTVKCDKPVVMVGAMRPSTSMSADGPFNLYNAVVTAADKASANRGVLVVMNDTVLDGRDVTKTNTTDVATFKSVNYGPLGYIHNGKIDYQRTPARKHTSDTPFDVSKLNELPKVGIVYNYANASDLPAKALVDAGYDGIVSAGVGNGNLYKSVFDTLATAAKTGTAVVRSSRVPTGATTQDAEVDDAKYGFVASGTLNPQKARVLLQLALTQTKDPQQIQQIFNQY
notes: mature protein (precursor residues 23 to 348) behind a pelB leader, pET25b, secreted from E. coli BL21(DE3), purified from medium; no tag mentioned; homotetramer with four active sites
Q: With B1 as the molecule, how does the Km [6] read?
A: Its Km is 2301 ± 75 µM.

Q: And the Km [7]?
A: The Km was 8 ± 3 µM.

B2: EcA2-4M (L-asparaginase II, BL21(DE3) / Elspar sequence) (Escherichia coli K-12; N86D/S274T/T285N/V49A) (protein)
chain: LPNITILATGGTIAGGGDSATKSNYTAGKVGVENLVNAVPQLKDIANVKGEQVVNIGSQDMNDDVWLTLAKKINTDCDKTDGFVITHGTDTMEETAYFLDLTVKCDKPVVMVGAMRPSTSMSADGPFNLYNAVVTAADKASANRGVLVVMNDTVLDGRDVTKTNTTDVATFKSVNYGPLGYIHNGKIDYQRTPARKHTSDTPFDVSKLNELPKVGIVYNYANASDLPAKALVDAGYDGIVSAGVGNGNLYKTVFDTLATAAKNGTAVVRSSRVPTGATTQDAEVDDAKYGFVASGTLNPQKARVLLQLALTQTKDPQQIQQIFNQY
notes: as for B1
Q: For B2, which Km [8] is on record?
A: The Km was 3111 ± 159 µM.

Q: And the Km [9]?
A: The Km was 11 ± 5 µM.
